In US20050288488 one finds activity data, which are given here for two substances.

Data set [1] has as its system LexA(1-202)-AhR N-delta-166 chimera (Escherichia coli? / Mus musculus?). Nature of the data set: cell_activity. The conditions noted are these: yeast GRS4 lacZ reporter, average induction over background with bNF or aNF; ligand EC50 6.1e-8 M for bNF.
Data set [2] addresses AhR-ARNT heterodimer (human AhR, human ARNT) (Homo sapiens) (UniProt P35869+P27540). Nature of the data set: cell_activity. The conditions noted are these: yeast A303 lacZ reporter, average induction over background with bNF or aNF; ligand EC50 7.9e-8 M for bNF.

AhR-ARNT heterodimer (human AhR, human ARNT) (Homo sapiens), sequence (P35869 whole entry, chain 1 of 2): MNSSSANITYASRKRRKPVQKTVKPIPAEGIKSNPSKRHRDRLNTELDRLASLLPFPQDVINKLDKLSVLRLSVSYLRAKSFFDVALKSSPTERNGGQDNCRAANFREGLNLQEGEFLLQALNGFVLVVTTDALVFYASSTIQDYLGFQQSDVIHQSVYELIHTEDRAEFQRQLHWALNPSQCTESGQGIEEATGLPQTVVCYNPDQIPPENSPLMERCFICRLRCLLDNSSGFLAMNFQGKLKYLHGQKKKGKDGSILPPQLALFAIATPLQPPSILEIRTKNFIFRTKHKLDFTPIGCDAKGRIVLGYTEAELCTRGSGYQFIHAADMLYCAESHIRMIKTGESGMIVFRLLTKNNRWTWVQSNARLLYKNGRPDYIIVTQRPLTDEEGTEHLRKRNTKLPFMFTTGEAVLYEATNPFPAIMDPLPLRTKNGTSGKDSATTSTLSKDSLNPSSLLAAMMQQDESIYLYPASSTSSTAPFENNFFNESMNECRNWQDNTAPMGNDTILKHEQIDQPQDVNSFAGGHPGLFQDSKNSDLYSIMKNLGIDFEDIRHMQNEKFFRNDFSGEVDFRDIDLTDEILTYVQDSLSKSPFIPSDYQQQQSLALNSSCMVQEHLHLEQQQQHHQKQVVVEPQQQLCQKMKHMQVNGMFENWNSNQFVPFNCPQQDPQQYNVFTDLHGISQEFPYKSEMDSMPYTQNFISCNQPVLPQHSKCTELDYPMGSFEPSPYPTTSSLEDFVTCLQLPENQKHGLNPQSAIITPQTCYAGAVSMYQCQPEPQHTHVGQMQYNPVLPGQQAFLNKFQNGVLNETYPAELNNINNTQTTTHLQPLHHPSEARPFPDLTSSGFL
AhR-ARNT heterodimer (human AhR, human ARNT) (Homo sapiens), sequence (P27540 whole entry, chain 2 of 2): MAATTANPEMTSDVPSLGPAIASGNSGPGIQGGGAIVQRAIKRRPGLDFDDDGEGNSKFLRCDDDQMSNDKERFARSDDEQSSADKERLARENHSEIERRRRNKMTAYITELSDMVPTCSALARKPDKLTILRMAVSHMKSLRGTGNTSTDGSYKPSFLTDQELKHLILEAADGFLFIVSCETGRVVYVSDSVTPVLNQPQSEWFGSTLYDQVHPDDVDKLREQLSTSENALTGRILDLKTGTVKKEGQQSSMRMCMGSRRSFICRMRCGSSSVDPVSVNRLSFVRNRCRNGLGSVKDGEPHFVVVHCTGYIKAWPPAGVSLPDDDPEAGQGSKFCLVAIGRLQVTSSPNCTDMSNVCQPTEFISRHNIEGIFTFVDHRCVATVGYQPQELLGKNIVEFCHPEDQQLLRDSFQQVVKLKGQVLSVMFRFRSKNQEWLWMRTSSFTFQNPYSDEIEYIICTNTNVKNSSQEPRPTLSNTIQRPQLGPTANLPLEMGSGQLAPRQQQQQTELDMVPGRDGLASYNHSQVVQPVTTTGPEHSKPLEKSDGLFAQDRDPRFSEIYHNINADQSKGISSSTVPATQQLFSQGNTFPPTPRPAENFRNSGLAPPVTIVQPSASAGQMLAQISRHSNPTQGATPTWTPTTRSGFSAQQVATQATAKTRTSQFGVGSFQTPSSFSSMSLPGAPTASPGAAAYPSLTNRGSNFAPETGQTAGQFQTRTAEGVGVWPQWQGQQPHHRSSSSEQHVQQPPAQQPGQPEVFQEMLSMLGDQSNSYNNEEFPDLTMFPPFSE

eight LexA operator reporter (pSH18-34): the activity in data set [1] is 90 fold.
Turning to DRE2-DRE3 reporter (pDRE23-Z), in data set [2], the activity turned out to be 12 fold.
